Test results published in US20230099801A1, “RESTORATION OF T CELL ACTIVITY VIA THE CD39/CD73 AXIS” (INNATE PHARMA, priority 2017, published 2023).
Entries after “also recorded” stand apart in the source; their conditions may differ.

Experiments:
allogenic CD4 T cells = experiment: Mixed lymphocytes reaction (MLR) of ATP-activated MoDC with allogenic CD4 T cells; type: cell-based, human; settings: MoDC activated in presence of ATP
Description: Briefly, human monocytes were purified from human healthy blood and differentiated into MoDC in presence of GM-CSF and IL-4 during 6 days. Then MoDC were activated in presence of ATP (Sigma, 0.25-1 mM) during 24 hours and DC activation were assessed by analyzing CD80, CD83 and HLA-DR expression by flow cytometry. […] LPS (Invivogen, 10 ng/ml) was used as positive control. To assess resulting effect of ATP-mediated DC activation on CD4 T cells activation, ATP-activated DC were washed and then incubated with allogenic CD4 T cells (ratio 1 MoDC/4 T cells) for a mixed lymphocytes reaction (MLR) during 5 days. T cells activation and proliferation were analyzed through CD25 expression and Cell Trace Violet dilution by flow cytometry (FIG. 8).

[1] = target: T1, soluble recombinant human CD39 protein (Homo sapiens, UniProt P49961); experiment: Inhibition of the enzymatic (ATPase) activity of soluble CD39, Cell Titer Glo; type: biochemical
T1 construct: made in house; host or cells: CHO cells
T1 sequence (P49961 with tags, fused parts or gaps): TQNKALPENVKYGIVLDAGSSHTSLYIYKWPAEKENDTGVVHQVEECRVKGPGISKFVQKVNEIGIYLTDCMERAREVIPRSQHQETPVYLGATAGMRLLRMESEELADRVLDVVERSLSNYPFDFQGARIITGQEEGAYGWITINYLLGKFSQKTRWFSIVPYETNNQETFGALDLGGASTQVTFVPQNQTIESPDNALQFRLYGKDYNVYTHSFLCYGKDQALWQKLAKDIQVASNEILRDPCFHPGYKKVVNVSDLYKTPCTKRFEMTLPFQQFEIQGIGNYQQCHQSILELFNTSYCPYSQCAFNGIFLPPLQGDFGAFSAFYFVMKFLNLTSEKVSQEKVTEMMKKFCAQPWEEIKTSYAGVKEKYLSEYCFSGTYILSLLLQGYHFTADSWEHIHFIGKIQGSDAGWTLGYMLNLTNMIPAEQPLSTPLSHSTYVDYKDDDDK
Description: The ability of an antibody to inhibit soluble recombinant human CD39 protein can be tested by detecting ATP after incubating test antibody with soluble CD39 protein (e.g., the CD39 protein having the amino acid sequence of SEQ ID NO: 5, as produced in Example 1, optionally further comprising a purification tag or other functional or non-functional non-CD39-derived amino acid sequence). See, e.g., Example 1. Briefly, ATP can be quantified using the Cell Titer Glo™ (Promega), in an assay in which dose ranges of test antibody are incubated with soluble recombinant human CD39 protein described in Example 1, for 1 hour at 37° C. 20 μM ATP are added to the plates for 30 additional minutes at 37° C. before addition of CTG reagent. Emitted light is quantified using an Enspire™ luminometer after a short incubation period of 5 min in the dark.
The inhibition by antibodies of the enzymatic activity of soluble CD39 protein produced was evaluated using Cell Titer Glo™ (Promega, reference G7571) that allows assessment of ATP hydrolysis through use of a reagent that generates a luminescent signal proportional to the amount of ATP present. In this way, inhibition of the soluble-CD39-mediated ATP hydrolysis can be assessed. Briefly, dose ranges of anti-CD39 antibodies from 100 μg/ml to 6×10^−3 μg/ml were incubated with 400 ng/ml of soluble recombinant human CD39 protein having the amino acid sequence described in the Methods section (SEQ ID NO: 54), for 1h at 37° C. 20 μM ATP was added to the plates for 30 additional minutes at 37° C. before addition of CTG (Cell Titer Glo) reagent. Emitted light was quantified using an Enspire™ luminometer after a short incubation period of 5 min in the dark. Anti-CD39 antibody efficacy was determined by comparing emitted light in presence of antibody with ATP alone (maximal light emission) and ATP together with soluble CD39 protein (minimal light emission).

[2] = target: T2, human Ramos lymphoma cells (Homo sapiens, UniProt P49961); experiment: Antibody titration on Ramos cells by flow cytometry; type: binding
T2 construct: host or cells: Ramos human lymphoma cells
T2 sequence (P49961 1-510): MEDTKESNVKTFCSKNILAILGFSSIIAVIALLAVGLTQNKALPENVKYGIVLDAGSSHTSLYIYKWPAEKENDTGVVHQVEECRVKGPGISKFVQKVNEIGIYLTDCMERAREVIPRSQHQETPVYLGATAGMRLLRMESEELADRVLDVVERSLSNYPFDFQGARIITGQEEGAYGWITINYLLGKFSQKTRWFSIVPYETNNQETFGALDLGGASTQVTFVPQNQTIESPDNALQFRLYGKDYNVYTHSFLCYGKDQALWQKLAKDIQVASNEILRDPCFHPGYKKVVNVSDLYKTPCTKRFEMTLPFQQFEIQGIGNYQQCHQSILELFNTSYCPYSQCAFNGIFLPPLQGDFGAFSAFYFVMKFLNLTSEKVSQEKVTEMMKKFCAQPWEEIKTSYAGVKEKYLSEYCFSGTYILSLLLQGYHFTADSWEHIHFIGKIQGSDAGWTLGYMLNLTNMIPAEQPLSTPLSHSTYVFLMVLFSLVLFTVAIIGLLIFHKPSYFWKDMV
Description: Cells were incubated with various concentration of unlabeled anti-CD39 antibody from 30 μg/ml to 5×10^−4 μg/ml, for 30 minutes at 4° C. After washes, cells were incubated with Goat anti-mouse H+L labeled secondary antibody for 30 min at 4° C.

[3] = target: T3, Human CD39-L4 (NTPDase5, ENTPD5) (Homo sapiens, UniProt O75356); experiment: ELISA titration on CD39-L4; type: binding
T3 sequence (O75356 25-428): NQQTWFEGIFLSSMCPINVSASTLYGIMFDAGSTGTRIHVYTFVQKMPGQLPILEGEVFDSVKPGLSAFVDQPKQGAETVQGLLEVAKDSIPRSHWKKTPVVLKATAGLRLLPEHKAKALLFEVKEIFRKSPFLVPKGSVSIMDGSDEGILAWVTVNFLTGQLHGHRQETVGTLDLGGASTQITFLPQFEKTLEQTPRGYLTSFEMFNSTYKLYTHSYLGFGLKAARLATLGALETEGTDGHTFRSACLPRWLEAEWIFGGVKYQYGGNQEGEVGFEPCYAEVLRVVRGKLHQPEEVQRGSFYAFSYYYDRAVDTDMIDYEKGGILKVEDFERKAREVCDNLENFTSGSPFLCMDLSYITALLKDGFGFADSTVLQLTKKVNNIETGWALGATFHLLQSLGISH
Description: (§1) Wells were washed in TBS Tween 20, and further saturated 2H at RT in TBS Blocking buffer. Dose range concentration of primary antibody was incubated in TBS blocking buffer for 2h at RT. Wells were washed in TBS Tween 20. […] Optical density was measured on Enspire™ at OD=450.

human CD39 = target: T4, human CD39 (Homo sapiens, UniProt P49961); experiment: ELISA titration on recombinant human CD39; type: binding
T4 sequence (P49961 1-510): T2 sequence (P49961 1-510)
Description: as §1

B1: I-394: anti-CD39 antibody, VH SEQ ID NO: 6, VL SEQ ID NO: 7; heavy/light chains SEQ ID NOS: 52 and 53 (antibody)
heavy: EVQLQQSGPELVKPGASVKMSCKASGYTFTDYNMHWVKQSHGRTLEWIGYIVPLNGGSTFNQKFKGRATLTVNTSSRTAYMELRSLTSEDSAAYYCARGGTRFAYWGQGTLVTVSAASTKGPSVFPLAPSSKSTSGGTAALGCLVKDYFPEPVTVSWNSGALTSGVHTFPAVLQSSGLYSLSSVVTVPSSSLGTQTYICNVNHKPSNTKVDKRVEPKSCDKTHTCPPCPAPEAEGAPSVFLFPPKPKDTLMISRTPEVTCVVVDVSHEDPEVKFNWYVDGVEVHNAKTKPREEQYNSTYRVVSVLTVLHQDWLNGKEYKCKVSNKALPSSIEKTISKAKGQPREPQVYTLPPSREEMTKNQVSLTCLVKGFYPSDIAVEWESNGQPENNYKTTPPVLDSDGSFFLYSKLTVDKSRWQQGNVFSCSVMHEALHNHYTQKSLSLSPGK
light: DIVLTQSPASLAVSLGQRATISCRASESVDNFGVSFMYWFQQKPGQPPNLLIYGASNQGSGVPARFRGSGSGTDFSLNIHPMEADDTAMYFCQQTKEVPYTFGGGTKLEIKRTVAAPSVFIFPPSDEQLKSGTASVVCLLNNFYPREAKVQWKVDNALQSGNSQESVTEQDSKDSTYSLSSTLTLSKADYEKHKVYACEVTHQGLSSPVTKSFNRGEC
modifications: Chimeric homo sapiens mus musculus
T cell proliferation and activation (CD25 expression, Cell Trace Violet dilution) in MLR (allogenic CD4 T cells): higher T cell proliferation and activation
maximum inhibition achieved, soluble CD39 protein [1]: 74.9%
inhibition of the enzymatic (ATPase) activity of soluble CD39 protein ([1]; 400 ng/ml soluble CD39, 20 μM ATP): strong inhibition; also recorded: inhibits; also recorded: highly potent
inhibition of ATPase activity of soluble CD39 when antibody is spiked into negative hybridoma supernatants ([1]; added to hybridoma supernatant): did not restore
inhibition of ATPase activity of soluble CD39 after purification from the negative supernatant ([1]; purified with Protein A coated beads): again able to inhibit
binding to Ramos lymphoma cells [2]: bound; also recorded: binds
binding to CD39-L4 in ELISA [3]: not to any of the human isoforms
binding to human CD39 in ELISA (human CD39): bound; also recorded: binds
